From paper PMC2781058 (Proceedings of the National Academy of Sciences of the …, 2009) come the findings set out here.

The assay deals with T1, Med18 (S. cerevisiae, UniProt P32585 1-307).
T1 sequence (looked up): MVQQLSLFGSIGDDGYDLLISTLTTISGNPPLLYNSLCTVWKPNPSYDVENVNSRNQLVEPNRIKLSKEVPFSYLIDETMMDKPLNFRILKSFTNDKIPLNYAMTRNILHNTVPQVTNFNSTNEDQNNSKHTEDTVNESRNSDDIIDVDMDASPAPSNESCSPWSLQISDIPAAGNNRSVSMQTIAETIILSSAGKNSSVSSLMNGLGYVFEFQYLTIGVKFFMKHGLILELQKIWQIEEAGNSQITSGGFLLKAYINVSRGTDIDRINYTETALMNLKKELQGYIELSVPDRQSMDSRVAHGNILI
In words: co-IP.

B1: Med20 (natural protein, S. cerevisiae, UniProt P34162 1-210, looked up)
chain: MGKSAVIFVERATPATLTELKDALSNSILSVRDPWSIDFRTYRCSIKNLPADVSKLMYSITFHHHGRQTVLIKDNSAMVTTAAAADIPPALVFNGSSTGVPESIDTILSSKLSNIWMQRQLIKGDAGETLILDGLTVRLVNLFSSTGFKGLLIELQADEAGEFETKIAGIEGHLAEIRAKEYKTSSDSLGPDTSNEICDLAYQYVRALEL
With B1, the binding result was “binds”.

B2: Med8 (natural protein, S. cerevisiae, UniProt P38304 1-223, looked up)
chain: MSQSTASLVPEGNQGSLQEDVSFDFNGVPGQALDAVRMRLAQLTHSLRRIRDEMSKAELPQWYTLQSQLNVTLSQLVSVTSTLQHFQETLDSTVVYPLPKFPTTSHESLVTTLLRKKNIPEVDEWMKYVRETSGVTTALLKDEEIEKLLQQDREITNWARTTFRNEYGKHDFKNEESLSEEHASLLVRDSKPSKPFNVDDVLKFTFTGEKPIITGSTSTSSSN
In the case of B2, the binding result is given as “binds”.
